Test results: paper PMC4981022
Where two headings read alike, the source gives them in different places.

What was measured:
[1] = target: endogenous TRAPPC6A (TPC6A), human cells (human (endogenous in HEK293, BCC, SK-N-SH and other human cell lines)) (UniProt O75865); experiment: western blotting (size of the bands); cytosol and nuclei of BCC cells, with or without UV irradiation; mitochondria of Jurkat T cells treated with PMA for 90 min
[2] = target: endogenous TRAPPC6A (TPC6A), human cells (human (endogenous in HEK293, BCC, SK-N-SH and other human cell lines)) (UniProt O75865); experiment: as above; remark: listed apart in the source

endogenous TRAPPC6A (TPC6A), human cells (from UniProt O75865 1-159) (natural protein)
stoichiometry N [1]: 3
stoichiometry N [2]: 2
